We go through one substance from article PMC4514675, “Novel Apo E-Derived ABCA1 Agonist Peptide (CS-6253) Promotes Reverse Cholesterol Transport and Induces Formation of preβ-1 HDL In Vitro” (PLoS ONE, 2015).

One data set has as its target ABCA1 (Homo sapiens, UniProt O95477). The experiment in a line: ABCA1-mediated phospholipid efflux from BHK-ABCA1 cells. Format: cell-based. Also noted: expressed in transfected cells; host or cells: BHK cells, stably transfected, induced with 10 nM mifepristone. The note with it: mean of triplicates ± SD, n = 3. The protocol: Supplementary file pone.0131997.s003.tif: S2 Fig Phospholipid efflux from BHK cells expressing ABCA1 to increasing concentrations of lipid free CS-6253 and apo A-I. Baby hamster kidney (BHK) cells were labeled with ^3[H]-choline. ABCA1 expression was induced by treating BHK cells with 10 nM mifepristone. Cells were then changed into fresh DMEM medium [no apolipoprotein A-I (apoA-I)] and incubated with apoA-I or CS-6253 (0.96 uM). Medium was collected after 2 h. […] Results represent the mean of triplicates ± SD, n = 3. (TIF) Click here for additional data file.
Cells were seeded (50×10^3 cells) in 24 well plates containing DMEM plus 10% FBS with 3 μCi/ml ^3H-choline chloride (Perkin Elmer, Norwalk, Connecticut), for 72 hours as previously reported with minor changes). Cells were then put into induction medium for 18–20 h (10 nM mifepristone). This was followed by incubation with increased molar doses of apo A-I and CS-6253 for 2 h at 37°C. Efflux medium was collected, and cellular lipids were extracted with hexane/isopropanol (3:2 v/v), while total phospholipids from the medium were extracted in chloroform /methanol (2:1 v/v). Efflux was determined as percent of total ^3[H] Phospholipids in the medium. All results were conformed at least twice. (S2 Fig.)

For the next data set, the system named is THP-1 foam cells. The experiment in a line: Cholesterol efflux from THP-1 macrophage-derived foam cells. In kind it is cell-based, human. As to the method:
Human THP-1 macrophages (American Type Tissue Culture Collection, Camden, NJ) were grown as previously reported. Cells were plated at 2x10^5/ml 24 well-plates in RPMI1640 medium containing 10% fetal bovine serum (FBS), 50 μM β–mercaptoethanol, 50 μg/ml gentamicin, and maintained at 37°C in a humidified atmosphere of 5% CO2. THP-1 cells were differentiated into macrophages by the addition of 200 nM phorbol myristyl acetate (PMA) for 72h. Macrophages were incubated for 72h to become fully differentiated macrophages prior to experiment. […]
Human macrophages THP-1 cells were labelled with ^3H-cholesterol (5 μCi/ml) incorporated into AcLDL (100 μg/ml) in the presence of 1% FBS, 50 μM β-mercaptoethanol and 200 nM PMA, and incubated for 72h. […] Medium and cell associated ^3H-cholesterol were then measured by liquid scintillation counting. Cholesterol efflux was calculated according to the following equation as the percentage of ^3H-cpm medium / (^3H-cpm medium + ^3H-cpm cells) × 100%. […] Bands corresponding to ^3[H]-FC and ^3[H]-CE were located by exposure to iodine vapor, and were scraped off the plate into liquid scintillating vials and assayed for radioactivity.
Fig 2 Effect of CS-6253 treatment on cholesterol efflux. […] Cholesterol efflux from either ABCA1 cells or control cells to apo A-I (closed circles), and CS-6253 (closed triangles) was determined at the indicated time points. […]

Sequence of ABCA1 (O95477 whole entry): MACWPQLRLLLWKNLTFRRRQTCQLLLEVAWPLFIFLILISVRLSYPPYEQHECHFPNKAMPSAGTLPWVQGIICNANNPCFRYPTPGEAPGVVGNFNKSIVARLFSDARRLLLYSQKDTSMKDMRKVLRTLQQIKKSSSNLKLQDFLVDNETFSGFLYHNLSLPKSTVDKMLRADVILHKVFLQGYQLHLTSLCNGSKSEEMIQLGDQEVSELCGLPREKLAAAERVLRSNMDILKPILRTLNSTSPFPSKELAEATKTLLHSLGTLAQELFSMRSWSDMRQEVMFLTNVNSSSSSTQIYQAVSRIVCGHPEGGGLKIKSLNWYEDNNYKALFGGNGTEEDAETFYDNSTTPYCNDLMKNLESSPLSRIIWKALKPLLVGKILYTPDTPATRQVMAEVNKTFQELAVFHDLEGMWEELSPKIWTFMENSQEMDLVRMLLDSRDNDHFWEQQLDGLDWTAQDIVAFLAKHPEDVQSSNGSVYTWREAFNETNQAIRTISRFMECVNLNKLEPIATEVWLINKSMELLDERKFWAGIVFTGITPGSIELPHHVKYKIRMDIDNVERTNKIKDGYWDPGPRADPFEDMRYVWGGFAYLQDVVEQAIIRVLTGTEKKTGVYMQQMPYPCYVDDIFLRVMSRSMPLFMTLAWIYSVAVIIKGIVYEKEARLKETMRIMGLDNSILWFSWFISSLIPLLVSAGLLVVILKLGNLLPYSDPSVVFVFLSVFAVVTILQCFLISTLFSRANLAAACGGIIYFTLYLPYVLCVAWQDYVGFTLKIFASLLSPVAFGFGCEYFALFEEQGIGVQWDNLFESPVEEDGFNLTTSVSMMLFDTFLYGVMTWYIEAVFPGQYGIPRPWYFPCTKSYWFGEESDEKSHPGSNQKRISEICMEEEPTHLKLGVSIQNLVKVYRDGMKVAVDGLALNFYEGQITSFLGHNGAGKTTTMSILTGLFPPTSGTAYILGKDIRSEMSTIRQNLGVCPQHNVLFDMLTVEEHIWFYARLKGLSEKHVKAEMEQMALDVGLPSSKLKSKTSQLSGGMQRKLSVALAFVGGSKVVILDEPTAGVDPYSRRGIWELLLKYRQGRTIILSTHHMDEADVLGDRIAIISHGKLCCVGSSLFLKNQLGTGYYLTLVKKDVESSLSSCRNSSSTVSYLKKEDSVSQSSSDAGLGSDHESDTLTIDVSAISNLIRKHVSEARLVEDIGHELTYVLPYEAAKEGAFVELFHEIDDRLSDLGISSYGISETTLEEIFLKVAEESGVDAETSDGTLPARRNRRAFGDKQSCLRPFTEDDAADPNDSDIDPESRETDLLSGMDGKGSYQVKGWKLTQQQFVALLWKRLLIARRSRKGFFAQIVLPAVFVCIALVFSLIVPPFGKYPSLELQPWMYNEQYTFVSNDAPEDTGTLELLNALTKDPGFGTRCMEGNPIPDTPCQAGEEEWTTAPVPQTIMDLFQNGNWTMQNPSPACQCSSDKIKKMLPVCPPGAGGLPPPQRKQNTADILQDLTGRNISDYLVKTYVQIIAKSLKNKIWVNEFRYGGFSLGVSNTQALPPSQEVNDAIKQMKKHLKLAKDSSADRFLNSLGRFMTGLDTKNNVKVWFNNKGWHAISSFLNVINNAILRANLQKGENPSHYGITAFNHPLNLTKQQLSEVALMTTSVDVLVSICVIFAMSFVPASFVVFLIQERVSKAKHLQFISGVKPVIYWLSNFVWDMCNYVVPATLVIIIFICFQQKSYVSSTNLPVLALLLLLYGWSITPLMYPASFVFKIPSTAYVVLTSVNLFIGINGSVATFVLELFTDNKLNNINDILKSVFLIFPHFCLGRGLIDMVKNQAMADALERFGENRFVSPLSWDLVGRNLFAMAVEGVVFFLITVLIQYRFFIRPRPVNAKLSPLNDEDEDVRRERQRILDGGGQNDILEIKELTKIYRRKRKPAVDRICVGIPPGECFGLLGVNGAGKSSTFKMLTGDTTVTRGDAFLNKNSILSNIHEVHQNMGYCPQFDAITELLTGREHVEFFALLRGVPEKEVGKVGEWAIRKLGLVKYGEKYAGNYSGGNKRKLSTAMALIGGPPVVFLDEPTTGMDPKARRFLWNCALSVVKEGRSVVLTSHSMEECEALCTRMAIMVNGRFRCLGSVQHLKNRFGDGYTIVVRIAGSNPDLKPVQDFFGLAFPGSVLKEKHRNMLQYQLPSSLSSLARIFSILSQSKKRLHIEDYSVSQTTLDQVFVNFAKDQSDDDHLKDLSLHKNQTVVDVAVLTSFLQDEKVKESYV

As usually defined, the Km is the concentration of substrate that gives half-maximal velocity. As for apolipoprotein A-I [apo A-I], in the data set with ABCA1 (2 h), the Km came out at 0.14 ± 0.02 µM and the “Km, phospholipid efflux” value came out at 3.65 ± 0.49 µg/mL. In addition, the “Vmax, phospholipid efflux” value with ABCA1 came to 0.77±0.02 % efflux/2h. The “3H-FC removed from FC-enriched THP-1 cells” value in the data set with THP-1 foam cells (0.96 μM acceptor, 24 h, vs control without acceptor, triplicate wells, mean ± SD) amounted to 27.42±1.04%. Further, the “proportion of FC mobilized away from the CE cycle” value in the data set on THP-1 foam cells (THP-1 foam cells, P<0.05) was determined as 29%.
